Biological target: HLA-DR molecule DRB1*0301 (human)
Assay: cell-based or functional assay

peptide titration assay: recognition by SSX-4 31-50 reactive CD4+ T cells from LAU 331, efficiency against peptide SSX-4 31-50: 3 fold
B1: peptide SSX-4 37-51 (peptide)
peptide: WEKMKSSEKIVYVYM
